{
  "source": "patent US12383631",
  "experiment_in_all_cases": "cell-based or functional assay",
  "key": {"[1]": {"target": "IL-18 polypeptide C145 (human) (UniProt Q14116)"}, "[2]": {"target": "IL-18 polypeptide C164 (human) (UniProt Q14116)"}, "[3]": {"target": "IL-18 polypeptide of SEQ ID NO: 47 (C38S, C68S, C76S, C127S) (human) (UniProt Q14116)"}, "[4]": {"target": "IL-18 polypeptide C149 (human) (UniProt Q14116)"}, "[5]": {"target": "IL-18 polypeptide C165 (human) (UniProt Q14116)"}, "[6]": {"target": "IL-18 polypeptide C163 (human) (UniProt Q14116)"}, "[7]": {"target": "IL-18 polypeptide of SEQ ID NO: 52 (E06K, T63A) (human) (UniProt Q14116)"}, "[8]": {"target": "Composition D (LZM-009 conjugated to IL-18 polypeptide of SEQ ID NO: 31) (human) (UniProt Q14116)"}, "[9]": {"target": "IL-18 polypeptide of SEQ ID NO: 39 (E06K, K53A) (human) (UniProt Q14116)"}, "[10]": {"target": "IL-18 polypeptide of SEQ ID NO: 31 (C38A, C76A, C127A) (human) (UniProt Q14116)"}, "[11]": {"target": "IL-18 polypeptide C157 (human) (UniProt Q14116)"}, "[12]": {"target": "IL-18 polypeptide C161 (human) (UniProt Q14116)"}, "[13]": {"target": "IL-18 polypeptide of SEQ ID NO: 6 (E6K, V11I, C38A, K53A, T63A, C68A, C76A, D98C, C127A) (human) (UniProt Q14116)"}, "[14]": {"target": "IL-18 polypeptide C159 (human) (UniProt Q14116)"}, "[15]": {"target": "IL-18 polypeptide of SEQ ID NO: 35 (Y01G, F02A, E06K, M51G, K53A, D54A, S55A, T63A) (human) (UniProt Q14116)"}, "[16]": {"target": "IL-18 polypeptide C143 (human) (UniProt Q14116)"}, "[17]": {"target": "IL-18 polypeptide C150 (human) (UniProt Q14116)"}, "[18]": {"target": "IL-18 polypeptide C153 (human) (UniProt Q14116)"}, "[19]": {"target": "native IL-18 wild-type (SEQ ID NO: 1) (human) (UniProt Q14116)"}, "[20]": {"target": "Composition A (LZM-009 conjugated to IL-18 polypeptide of SEQ ID NO: 30) (human) (UniProt Q14116)"}, "[21]": {"target": "IL-18 polypeptide of SEQ ID NO: 40 (E06K, S55A) (human) (UniProt Q14116)"}, "[22]": {"target": "IL-18 polypeptide of SEQ ID NO: 42 (E06K, K53A, S55A, T63A) (human) (UniProt Q14116)"}, "[23]": {"target": "IL-18 polypeptide of SEQ ID NO: 5 (E6K, V11I, C38A, K53A, T63A, C68A, C76A, M86C, C127A) (human) (UniProt Q14116)"}, "[24]": {"target": "IL-18 polypeptide of SEQ ID NO: 54 (E06K, K53A, C38S, C68S, C76S, C127S, K70C) (human) (UniProt Q14116)"}, "[25]": {"target": "IL-18 polypeptide of SEQ ID NO: 36 (K53A) (human) (UniProt Q14116)"}, "[26]": {"target": "IL-18 polypeptide of SEQ ID NO: 30 (E6K, V11I, C38A, K53A, T63A, C76A, C127A) (human) (UniProt Q14116)"}, "[27]": {"target": "IL-18 polypeptide C151 (human) (UniProt Q14116)"}, "[28]": {"target": "IL-18 polypeptide of SEQ ID NO: 59 (E6K, C38A, K53A) (human) (UniProt Q14116)"}, "[29]": {"target": "IL-18 polypeptide C155 (human) (UniProt Q14116)"}, "[30]": {"target": "Composition B (Atezolizumab/Tecentriq conjugated to IL-18 polypeptide of SEQ ID NO: 30) (human) [IgG part: P0DOX5]"}, "[31]": {"target": "IL-18 polypeptide of SEQ ID NO: 4 (E6K, C38A, K53A, C68A, M86C) (human) (UniProt Q14116)"}, "[32]": {"target": "IL-18 polypeptide of SEQ ID NO: 51 (T63A) (human) (UniProt Q14116)"}, "[33]": {"target": "IL-18 polypeptide of SEQ ID NO: 34 (E06K, K53A, S55A) (human) (UniProt Q14116)"}, "[34]": {"target": "IL-18 polypeptide of SEQ ID NO: 53 (K53A, T63A) (human) (UniProt Q14116)"}, "[35]": {"target": "IL-18 polypeptide of SEQ ID NO: 43 (E06K, K53A, S55A, Y01G) (human) (UniProt Q14116)"}, "[36]": {"target": "IL-18 polypeptide C167 (human) (UniProt Q14116)"}, "[37]": {"target": "IL-18 polypeptide C146 (SEQ ID NO: 68) (human) (UniProt Q14116)"}, "[38]": {"target": "IL-18 polypeptide C160 (human) (UniProt Q14116)"}, "[39]": {"target": "IL-18 polypeptide of SEQ ID NO: 41 (K53A, S55A) (human) (UniProt Q14116)"}},
  "data": [
    {"substance": "Fc fused human IL-18 binding protein isoform a (IL-18BPa; R&D systems, Cat #119-BP) (from UniProt O95998 31-194) (Fc fusion)", "values": [
      {"measurement": "IC50 of IL-18BP on IFNγ secretion, NK92 cells", "setting": "[1]", "value": 10.2, "unit": "nM"},
      {"measurement": "IC50 of IL-18BP on IFNγ secretion, NK92 cells", "setting": "[2]", "value": 0.456, "unit": "nM"},
      {"measurement": "IC50 of IL-18BP on IFNγ secretion, NK92 cells", "setting": "[3]", "value": 0.444, "unit": "nM"},
      {"measurement": "IC50 of IL-18BP on IFNγ secretion, NK92 cells", "setting": "[4]", "value": 1.17, "unit": "nM"},
      {"measurement": "IC50 of IL-18BP on IFNγ secretion, NK92 cells", "setting": "[5]", "value": 0.885, "unit": "nM"},
      {"measurement": "IC50 of IL-18BP on IFNγ secretion, NK92 cells", "setting": "[6]", "value": 0.823, "unit": "nM"},
      {"measurement": "IC50 of IL-18BP on IFNγ secretion, NK92 cells", "setting": "[7]", "value": 47.1, "unit": "nM"},
      {"measurement": "IC50 of IL-18BPa on IFNγ secretion by NK92 cells", "setting": "[8]", "value": 0.098, "unit": "nM"},
      {"measurement": "IC50 of IL-18BP on IFNγ secretion, NK92 cells", "setting": "[9]", "value": "> 703", "unit": "nM"},
      {"measurement": "IC50 of IL-18BPa on IFNγ secretion by NK92 cells", "setting": "[10]", "value": 0.282, "unit": "nM"},
      {"measurement": "IC50 of IL-18BP on IFNγ secretion, NK92 cells", "setting": "[11]", "value": 6.08, "unit": "nM"},
      {"measurement": "IC50 of IL-18BP on IFNγ secretion, NK92 cells", "setting": "[12]", "value": 1.07, "unit": "nM"},
      {"measurement": "IC50 of IL-18BP on IFNγ secretion, NK92 cells", "setting": "[13]", "value": 5.85, "unit": "nM"},
      {"measurement": "IC50 of IL-18BP on IFNγ secretion, NK92 cells", "setting": "[14]", "value": 1.81, "unit": "nM"},
      {"measurement": "IC50 of IL-18BP on IFNγ secretion, NK92 cells", "setting": "[15]", "value": "> 55", "unit": "nM"},
      {"measurement": "IC50 of IL-18BP on IFNγ secretion, NK92 cells", "setting": "[16]", "value": 1.62, "unit": "nM"},
      {"measurement": "IC50 of IL-18BP on IFNγ secretion, NK92 cells", "setting": "[17]", "value": 21.3, "unit": "nM"},
      {"measurement": "IC50 of IL-18BP on IFNγ secretion, NK92 cells", "setting": "[18]", "value": 2.22, "unit": "nM"},
      {"measurement": "IC50 of IL-18BP on IFNγ secretion, NK92 cells", "setting": "[19]", "value": 1.47, "unit": "nM"},
      {"measurement": "IC50 of IL-18BPa on IFNγ secretion by NK92 cells", "setting": "[19]", "value": 0.781, "unit": "nM"},
      {"measurement": "IC50 of IL-18BPa on IFNγ secretion by NK92 cells", "setting": "[20]", "value": 6.87, "unit": "nM"},
      {"measurement": "IC50 of IL-18BP on IFNγ secretion, NK92 cells", "setting": "[21]", "value": 15, "unit": "nM"},
      {"measurement": "IC50 of IL-18BP on IFNγ secretion, NK92 cells", "setting": "[22]", "value": 1060, "unit": "nM"},
      {"measurement": "IC50 of IL-18BP on IFNγ secretion, NK92 cells", "setting": "[23]", "value": 62.4, "unit": "nM"},
      {"measurement": "IC50 of IL-18BP on IFNγ secretion, NK92 cells", "setting": "[24]", "value": 23.5, "unit": "nM"},
      {"measurement": "IC50 of IL-18BP on IFNγ secretion, NK92 cells", "setting": "[25]", "value": 27.3, "unit": "nM"},
      {"measurement": "IC50 of IL-18BPa on IFNγ secretion by NK92 cells", "setting": "[26]", "value": 488, "unit": "nM"},
      {"measurement": "IC50 of IL-18BP on IFNγ secretion, NK92 cells", "setting": "[27]", "value": 3.62, "unit": "nM"},
      {"measurement": "IC50 of IL-18BP on IFNγ secretion, NK92 cells", "setting": "[28]", "value": 654, "unit": "nM"},
      {"measurement": "IC50 of IL-18BP on IFNγ secretion, NK92 cells", "setting": "[29]", "value": 3.23, "unit": "nM"},
      {"measurement": "IC50 of IL-18BPa on IFNγ secretion by NK92 cells", "setting": "[30]", "value": "> 1000", "unit": "nM"},
      {"measurement": "IC50 of IL-18BP on IFNγ secretion, NK92 cells", "setting": "[31]", "value": 396, "unit": "nM"},
      {"measurement": "IC50 of IL-18BP on IFNγ secretion, NK92 cells", "setting": "[32]", "value": 0.239, "unit": "nM"},
      {"measurement": "IC50 of IL-18BP on IFNγ secretion, NK92 cells", "setting": "[33]", "value": 229, "unit": "nM"},
      {"measurement": "IC50 of IL-18BP on IFNγ secretion, NK92 cells", "setting": "[34]", "value": 18.2, "unit": "nM"},
      {"measurement": "IC50 of IL-18BP on IFNγ secretion, NK92 cells", "setting": "[35]", "value": 27.8, "unit": "nM"},
      {"measurement": "IC50 of IL-18BP on IFNγ secretion, NK92 cells", "setting": "[36]", "value": 0.809, "unit": "nM"},
      {"measurement": "IC50 of IL-18BP on IFNγ secretion, NK92 cells", "setting": "[37]", "value": 733, "unit": "nM"},
      {"measurement": "IC50 of IL-18BP on IFNγ secretion, NK92 cells", "setting": "[38]", "value": 3.18, "unit": "nM"},
      {"measurement": "IC50 of IL-18BP on IFNγ secretion, NK92 cells", "setting": "[39]", "value": 37.3, "unit": "nM"}
    ]}
  ]
}
